Experimental findings from paper PMC3937224, “Convergence of Light and ABA Signaling on the ABI5 Promoter” (PLoS Genetics, 2014) are described below.

Data set [1] deals with T1, GST-HY5 (Arabidopsis thaliana, UniProt O24646 1-168).
T1 sequence: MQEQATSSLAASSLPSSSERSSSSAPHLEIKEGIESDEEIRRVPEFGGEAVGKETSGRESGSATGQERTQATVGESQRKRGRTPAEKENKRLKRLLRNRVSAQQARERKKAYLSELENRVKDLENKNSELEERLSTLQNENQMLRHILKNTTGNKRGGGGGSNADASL
As to the kind of experiment: EMSA; 0.5 ug protein; no BBX21; 10 mM Tris-HCl (pH not stated), 150 mM KCl, 1 mM DTT, 50 ng/ml poly(dI-dC), 2.5% glycerol, 0.05% NP-40, 100 mM ZnCl2 (so in the source), 0.5 ug/ml BSA, 20 min at room temperature; 6% native PAGE. Conditions: protein: recombinant; tags: N-terminal GST (pGEX-6P-1, printed pEGX-6P-1); chain copies: 2; label: 5' biotin; blunt (complementary oligonucleotides; second strand not seen in material). In general terms: A gel shift assay detects complexes by their altered migration in electrophoresis.

Data set [2] concerns the target T2, 6xHis-BBX21 (STH2) (Arabidopsis thaliana, UniProt Q9LQZ7 1-331).
T2 sequence: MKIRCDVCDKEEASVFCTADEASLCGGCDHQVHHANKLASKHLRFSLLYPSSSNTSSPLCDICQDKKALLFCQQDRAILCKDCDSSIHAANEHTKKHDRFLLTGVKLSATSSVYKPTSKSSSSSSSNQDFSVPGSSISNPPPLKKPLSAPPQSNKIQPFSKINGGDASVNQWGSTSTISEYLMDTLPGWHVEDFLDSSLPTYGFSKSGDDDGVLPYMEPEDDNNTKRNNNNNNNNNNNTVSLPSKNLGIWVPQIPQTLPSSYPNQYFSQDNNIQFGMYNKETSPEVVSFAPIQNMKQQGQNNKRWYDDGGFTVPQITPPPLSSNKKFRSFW
The experiment in a line: EMSA; 10 mM Tris-HCl (pH not stated), 150 mM KCl, 1 mM DTT, 50 ng/ml poly(dI-dC), 2.5% glycerol, 0.05% NP-40, 100 mM ZnCl2 (so in the source), 0.5 ug/ml BSA, 20 min at room temperature; 6% native PAGE. Conditions: protein: recombinant; tags: 6xHis; label: 5' biotin; blunt (complementary oligonucleotides; second strand not seen in material).

The target in data set [3] is T3, GST-ABI5 (Arabidopsis thaliana, UniProt Q9SJN0 1-442).
T3 construct: ABI5 (ABA … 5), Arabidopsis thaliana; Probably made in E. coli like GST and GST-HY5; source: purified
T3 sequence (looked up): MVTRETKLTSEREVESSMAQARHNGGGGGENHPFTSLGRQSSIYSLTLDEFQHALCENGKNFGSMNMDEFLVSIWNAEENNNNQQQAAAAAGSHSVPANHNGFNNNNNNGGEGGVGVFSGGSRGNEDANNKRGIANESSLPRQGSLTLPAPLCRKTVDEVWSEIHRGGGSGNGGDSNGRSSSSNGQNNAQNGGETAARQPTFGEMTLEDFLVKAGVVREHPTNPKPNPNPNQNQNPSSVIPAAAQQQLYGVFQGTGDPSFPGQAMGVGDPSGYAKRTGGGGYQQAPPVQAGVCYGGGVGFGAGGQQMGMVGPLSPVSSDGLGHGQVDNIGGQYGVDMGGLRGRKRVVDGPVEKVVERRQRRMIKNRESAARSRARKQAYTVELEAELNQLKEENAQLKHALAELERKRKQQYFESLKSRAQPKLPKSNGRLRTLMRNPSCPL
The experiment in a line: pull-down; 2 µg 6×His-BBX21 bound to Ni-NTA magnetic beads (2 h, 4°C), incubated overnight at 4°C with 2 µg GST or GST-ABI5; wash with 10 mM Tris pH 8.0, 100 mM NaCl, 0.1% Triton X-100, 5 mM imidazol; Western blot with anti-GST. To be noted: both partners purified. (In western blotting, separated proteins are transferred to a membrane and probed.)

B1: ABI5 promoter probe (dsDNA)
DNA 1: GATTCCGAACTTCCATTGGGAGTGCACGTGGACTATTCACTGCATAAGG
DNA 2: CCTTATGCAGTGAATAGTCCACGTGCACTCCCAATGGAAGTTCGGAATC
Take B1: the binding result in data set [1] is “binds”; in data set [2] it was “no binding”.

B2: 6×His-BBX21 (natural protein, Arabidopsis thaliana, UniProt Q9LQZ7 1-331, looked up)
chain: MKIRCDVCDKEEASVFCTADEASLCGGCDHQVHHANKLASKHLRFSLLYPSSSNTSSPLCDICQDKKALLFCQQDRAILCKDCDSSIHAANEHTKKHDRFLLTGVKLSATSSVYKPTSKSSSSSSSNQDFSVPGSSISNPPPLKKPLSAPPQSNKIQPFSKINGGDASVNQWGSTSTISEYLMDTLPGWHVEDFLDSSLPTYGFSKSGDDDGVLPYMEPEDDNNTKRNNNNNNNNNNNTVSLPSKNLGIWVPQIPQTLPSSYPNQYFSQDNNIQFGMYNKETSPEVVSFAPIQNMKQQGQNNKRWYDDGGFTVPQITPPPLSSNKKFRSFW
notes: BBX21 (STH2), Arabidopsis thaliana; also called 6×His-tagged BBX21; source: Escherichia coli, purified
Take B2: the binding result in data set [3] was “binds”.
